{"source": "paper doi:10.1101/2023.08.11.553033", "binders": {"B1": {"name": "PBM half site TTCAAGAA (dsDNA)", "DNA 1": "AAAAGTTCAAGAACAACC", "DNA 2": "GGTTGTTCTTGAACTTTT"}, "B2": {"name": "PBM half site TTCCGAAA (dsDNA)", "DNA 1": "AAAAGTTCCGAAACAACC", "DNA 2": "GGTTGTTTCGGAACTTTT"}, "B3": {"name": "PDR5_4 G4T G14A (paper numbering) (dsDNA)", "DNA 1": "AAACTTCCGTGGAAAACC", "DNA 2": "GGTTTTCCACGGAAGTTT"}, "B4": {"name": "PBM half site 18mer (dsDNA)", "DNA 1": "AAAAGTTCCGGAACAACC", "DNA 2": "GGTTGTTCCGGAACTTTT"}, "B5": {"name": "PDR5_4 C4A G4T G14A (paper numbering) (dsDNA)", "DNA 1": "AAAATTCCGTGGAAAACC", "DNA 2": "GGTTTTCCACGGAATTTT"}}, "key": {"Pdr3p DBD [1]": {"target": "T1, Pdr3p DBD (Saccharomyces cerevisiae, UniProt P33200 1-184)", "T1 sequence": "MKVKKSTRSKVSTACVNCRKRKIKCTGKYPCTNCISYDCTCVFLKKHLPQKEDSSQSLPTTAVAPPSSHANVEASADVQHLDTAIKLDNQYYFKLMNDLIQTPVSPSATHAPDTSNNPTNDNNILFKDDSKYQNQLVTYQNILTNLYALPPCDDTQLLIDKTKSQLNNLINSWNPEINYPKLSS", "test": "competition fluorescence polarization"}, "Pdr1p DBD [2]": {"target": "T2, Pdr1p DBD (Saccharomyces cerevisiae, UniProt P12383 1-207)", "T2 sequence": "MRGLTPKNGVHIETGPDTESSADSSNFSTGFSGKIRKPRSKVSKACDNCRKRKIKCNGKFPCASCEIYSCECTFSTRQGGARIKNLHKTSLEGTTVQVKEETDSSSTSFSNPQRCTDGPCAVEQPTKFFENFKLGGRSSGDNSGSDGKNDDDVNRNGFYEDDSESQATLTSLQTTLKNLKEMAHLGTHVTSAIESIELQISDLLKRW", "test": "competition fluorescence polarization"}, "Pdr1p DBD [3]": {"target": "T2, Pdr1p DBD", "test": "competition fluorescence polarization", "remark": "listed apart in the source"}, "Pdr3p DBD [4]": {"target": "T1, Pdr3p DBD", "test": "competition fluorescence polarization", "remark": "listed apart in the source"}, "Pdr1p DBD [5]": {"target": "T2, Pdr1p DBD", "test": "competition fluorescence polarization", "remark": "listed apart in the source"}, "Pdr1p DBD [6]": {"target": "T2, Pdr1p DBD", "test": "fluorescence polarization"}, "Pdr3p DBD [7]": {"target": "T1, Pdr3p DBD", "test": "fluorescence polarization"}, "Pdr3p DBD [8]": {"target": "T1, Pdr3p DBD", "test": "competition fluorescence polarization", "remark": "listed apart in the source"}, "Pdr1p DBD [9]": {"target": "T2, Pdr1p DBD", "test": "competition fluorescence polarization", "remark": "listed apart in the source"}}, "note": "Read-outs that look alike come from different tables or passages of the source."}
{"binder": "B1", "values": [{"measurement": "binding signal", "setting": "Pdr3p DBD [1]", "value": "2.5 fold lower affinity than PBM half site"}, {"measurement": "binding signal", "setting": "Pdr1p DBD [2]", "value": "30 fold lower affinity than PBM half site"}]}
{"binder": "B2", "values": [{"measurement": "binding result", "setting": "Pdr1p DBD [3]", "value": "binds"}, {"measurement": "binding result", "setting": "Pdr3p DBD [4]", "value": "binds"}]}
{"binder": "B3", "values": [{"measurement": "binding result", "setting": "Pdr1p DBD [5]", "value": "binds"}]}
{"binder": "B4", "values": [{"measurement": "Kd", "setting": "Pdr1p DBD [6]", "value": 229, "unit": "nM"}, {"measurement": "Kd", "setting": "Pdr3p DBD [7]", "value": 118, "unit": "nM"}]}
{"binder": "B5", "values": [{"measurement": "binding result", "setting": "Pdr3p DBD [8]", "value": "binds"}, {"measurement": "binding result", "setting": "Pdr1p DBD [9]", "value": "binds"}]}
